# Laboratory results as given in US20040053822A1.
# Target: HLA-A2401 (human)
# Test: inhibition of 125I probe peptide binding to purified HLA
# Conditions: not given
row,relative binding ratio (IC50 standard/IC50 peptide),Substance
1,0.0049,"MAGE3 peptide, position 97, 9 amino acids"
2,0.53,"MAGE3 peptide, position 142, 9 amino acids"
3,0.091,"MAGE3 peptide, position 150, 11 amino acids"
4,0.42,"MAGE3 peptide, position 195, 9 amino acids"
5,0.05,"MAGE3 peptide, position 195, 10 amino acids"
6,0.026,"MAGE3 peptide, position 221, 11 amino acids"
7,0.0004,"MAGE3 peptide, position 268, 11 amino acids"
8,0.0006,"MAGE3 peptide, position 270, 9 amino acids"
9,0.042,"MAGE3 peptide, position 300, 8 amino acids"
10,0.59,"MAGE3 peptide, position 300, 10 amino acids"

# Target: HLA-A*6802 (human)
# Test: competition with 125I probe peptide, purified HLA, gel filtration
# Conditions: scale: ratio
row,relative binding ratio,Substance
1,0.0012,"MAGE3 peptide, position 220, 9 amino acids"

# Target: HLA-A*2401 (human)
# Test: inhibition of 125I-labelled standard peptide binding to purified HLA
# Conditions: not given
row,relative binding ratio (IC50 standard peptide / IC50 test peptide),Substance
1,0.0049,"MAGE3 97-105 (position 97, 9 amino acids) (peptide)"
2,0.53,"MAGE3 142-150 (position 142, 9 amino acids) (peptide)"
3,0.091,"MAGE3 150-160 (position 150, 11 amino acids) (peptide)"
4,0.42,"MAGE3 195-203 (position 195, 9 amino acids) (peptide)"
5,0.05,"MAGE3 195-204 (position 195, 10 amino acids) (peptide)"
6,0.026,"MAGE3 221-231 (position 221, 11 amino acids) (peptide)"
7,0.042,"MAGE3 300-307 (position 300, 8 amino acids) (peptide)"
8,0.59,"MAGE3 300-309 (position 300, 10 amino acids) (peptide)"

# Target: HLA-A*0203 (human)
# Test: competition with 125I probe peptide, purified HLA
# Conditions: not given
row,IC50,Substance
1,769 nM,MAGE3.174 11-mer … (peptide)

# Target: HLA-A*0301 (human)
# Test: competition with 125I probe peptide, purified HLA
# Conditions: not given
row,IC50,Substance
1,1000 nM,MAGE2.71 11-mer … (peptide)

# Target: HLA-A*6802 (human)
# Test: competition with 125I probe peptide, purified HLA
# Conditions: not given
row,IC50,Substance
1,7690 nM,MAGE2.112 11-mer … (peptide)
2,4490 nM,MAGE3.174 11-mer … (peptide)

# Target: HLA-A*0301 (human)
# Test: 125I-probe competition, purified HLA
# Conditions: not given
row,relative binding ratio,Substance
1,0.0045,"MAGE2 and MAGE3 peptide, position 115, 9 amino acids"

# Target: HLA-A*0301 (human)
# Test: competition vs 125I standard peptide, purified HLA-A*0301
# Conditions: not given
row,relative binding ratio (ratio to standard peptide),Substance
1,0.0045,"MAGE3 peptide, position 115, 9 amino acids"
2,0.0066,"MAGE3 peptide, position 115, 10 amino acids"
3,0.0016,"MAGE3 peptide, position 118, 9 amino acids"
4,0.0014,"MAGE3 peptide, position 118, 10 amino acids"
5,0.0032,"MAGE3 peptide, position 267, 10 amino acids"
